Test results taken from patent US20210060072A1 (CRISPR THERAPEUTICS, published 2021).

Target: T1, CD70 on CD70-expressing cancer cell lines (A498, ACHN, SK-OV-3, Hs-766T, NCI-H1975, Calu-1, DU 145, MM.1S, … (human, UniProt P32970 1-193))
T1 sequence (looked up): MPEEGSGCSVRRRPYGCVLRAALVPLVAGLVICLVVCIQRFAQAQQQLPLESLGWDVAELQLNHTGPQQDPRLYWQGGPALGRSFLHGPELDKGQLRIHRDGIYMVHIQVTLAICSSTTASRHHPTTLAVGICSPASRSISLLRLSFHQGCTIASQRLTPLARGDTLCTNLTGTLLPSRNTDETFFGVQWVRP
Test: cell-based or functional assay

B1: anti-CD70 CAR (CD70B scFv with 41BB; CD8 transmembrane domain, 41BB co-stimulatory domain, CD3z signaling domain) (other)
chain: QVQLVQSGAEVKKPGASVKVSCKASGYTFTNYGMNWVRQAPGQGLKWMGWINTYTGEPTYADAFKGRVTMTRDTSISTAYMELSRLRSDDTAVYYCARDYGDYGMDYWGQGTTVTVSSGGGGSGGGGSGGGGSGDIVMTQSPDSLAVSLGERATINCRASKSVSTSGYSFMHWYQQKPGQPPKLLIYLASNLESGVPDRFSGSGSGTDFTLTISSLQAEDVAVYYCQHSREVPWTFGQGTKVEIKSAAAFVPVFLPAKPTTTPAPRPPTPAPTIASQPLSLRPEACRPAAGGAVHTRGLDFACDIYIWAPLAGTCGVLLLSLVITLYCNHRNRKRGRKKLLYIFKQPFMRPVQTTQEEDGCSCRFPEEEEGGCELRVKFSRSADAPAYQQGQNQLYNELNLGRREEYDVLDKRRGRDPEMGGKPRRKNPQEGLYNELQKDKMAEAYSEIGMKGERRRGKGHDGLYQGLSTATKDTYDALHMQALPPR
cell killing, 24 hours of co-culture, A498, ACHN, SK-OV-3 and Hs-766T cells, 1:1 effector:target cell ratio (3xKO and 4xKO CD70 CAR+ T cells): > 50% | cell killing, 24 hours of co-culture, A498, ACHN, SK-OV-3 and Hs-766T cells, 4:1 effector:target cell ratio (3xKO and 4xKO CD70 CAR+ T cells): > 60% | cell killing, 24 hours of co-culture, NCI-H1975, Calu-1 and DU 145 cells, 4:1 effector:target cell ratio: > 30% | cell killing, 96 hours of co-culture, SKOV-3, Hs-766T and NIC-H1975 cells, 1:1 effector:target cell ratio: > 80%
